The record followed here is patent publication US20170051068A1 (Janssen / Centocor, published 2017).

Experiment [1] addresses T1, Fc-fusion cyno BCMA (in-house; Cat# BCMW6.001) (cyno, UniProt Q02223 1-54 (human entry)).
T1 construct: also called Fc-BCMA Cy; cyno Fc-BCMA; not shown: Fc part
The experiment in a line: SPR, Fc-BCMA, two-state model, step 1 (koff1); first step (koff1).

In experiment [2] the target is T1, Fc-fusion cyno BCMA (in-house; Cat# …). Put plainly: SPR, Fc-BCMA, two-state model, first complex.
Experiment [3] shares this target. The experiment in a line: SPR, Fc-BCMA, two-state model, Final KD; Final complex KD, two-state model.
Experiment [4] shares this target. Put plainly: SPR, cyno Fc-BCMA. For orientation: In SPR one partner is held on a chip, and binding of the other changes the refractive index at the surface.
Experiment [5] has the same target. Put plainly: SPR, Fc-BCMA, two-state model, step 2.
For experiment [6] the target is unchanged. The experiment in a line: SPR, Fc-BCMA, two-state model, step 1 (kon1); first step (kon1).
The target of experiment [7] is T2, Recombinant human BCMA-Fc fusion protein (R&D Systems catalog #193-BC-050) (human, UniProt Q02223 1-54).
T2 construct: also called hBCMA-Fc; Fc-BCMA Hu; not shown: Fc part of the bought fusion protein
T2 sequence: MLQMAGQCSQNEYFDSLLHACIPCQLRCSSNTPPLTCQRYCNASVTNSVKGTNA
Put plainly: SPR, Fc-BCMA, two-state model, step 1 (koff1); first step (koff1).

The target of experiment [8] is T2, Recombinant human BCMA-Fc fusion …. The experiment in a line: SPR, Fc-BCMA, two-state model, first complex.
Experiment [9] has the same target. The experiment in a line: SPR, Fc-BCMA, two-state model, Final KD; Final complex KD, two-state model.
The target is the same in experiment [10]. The experiment in a line: SPR, Fc-BCMA, two-state model, step 2.
For experiment [11] the target is unchanged. The experiment in a line: SPR, human Fc-BCMA.
Experiment [12] has the same target. Put plainly: SPR, Fc-BCMA, two-state model, step 1 (kon1); first step (kon1).

B1: BC3B7 (BCMA×CD3 bispecific antibody, BCMB117 × CD3B219) (bispecific antibody, human IgG4 S228P, lambda, F234A L235A)
heavy 1: EVQLVESGGGLVQPGGSLRLSCAASGFTFNTYAMNWVRQAPGKGLEWVARIRSKYNNYATYYAASVKGRFTISRDDSKNSLYLQMNSLKTEDTAVYYCARHGNFGNSYVSWFAYWGQGTLVTVSSASTKGPSVFPLAPCSRSTSESTAALGCLVKDYFPEPVTVSWNSGALTSGVHTFPAVLQSSGLYSLSSVVTVPSSSLGTKTYTCNVDHKPSNTKVDKRVESKYGPPCPPCPAPEAAGGPSVFLFPPKPKDTLMISRTPEVTCVVVDVSQEDPEVQFNWYVDGVEVHNAKTKPREEQFNSTYRVVSVLTVLHQDWLNGKEYKCKVSNKGLPSSIEKTISKAKGQPREPQVYTLPPSQEEMTKNQVSLTCLVKGFYPSDIAVEWESNGQPENNYKTTPPVLDSDGSFLLYSKLTVDKSRWQEGNVFSCSVMHEALHNHYTQKSLSLSLGK
light 1: QTVVTQEPSLTVSPGGTVTLTCRSSTGAVTTSNYANWVQQKPGQAPRGLIGGTNKRAPGTPARFSGSLLGGKAALTLSGVQPEDEAEYYCALWYSNLWVFGGGTKLTVLGQPKAAPSVTLFPPSSEELQANKATLVCLISDFYPGAVTVAWKADSSPVKAGVETTTPSKQSNNKYAASSYLSLTPEQWKSHRSYSCQVTHEGSTVEKTVAPTECS
heavy 2: not shown
light 2: SYVLTQPPSVSVAPGQTARITCGGNNIGSKSVHWYQQPPGQAPVVVVYDDSDRPSGIPERFSGSNSGNTATLTISRVEAGDEAVYYCQVWDSSSDHVVFGGGTKLTVLGQPKAAPSVTLFPPSSEELQANKATLVCLISDFYPGAVTVAWKADSSPVKAGVETTTPSKQSNNKYAASSYLSLTPEQWKSHRSYSCQVTHEGSTVEKTVAPTECS
notes: also called BC3BY; B117 × B219
By koff is commonly meant the rate constant with which the complex falls apart. Broadly, the Kd is the equilibrium constant for the complex coming apart. For orientation: kon means the rate constant with which the complex forms. Molecule B1 came in with a koff in experiment [1] of 0.00417 s⁻¹. Moreover, the KD1 in experiment [2] is 3.04 nM. The molecule further registered an equilibrium dissociation constant (Kd) in experiment [3] of 0.65 nM. In experiment [4], the “fold tighter affinity than BCMB72” value worked out at 2 fold. Moreover, in [5], the koff2 stood at 0.000415 s⁻¹ and the kon2 was found to be 0.0015 s⁻¹. Moreover, the kon in experiment [6] stood at 1.38e+06 M⁻¹ s⁻¹.

B2: BC3B11 (BCMA×CD3 bispecific antibody, BCMB176 × CD3B219) (bispecific antibody, human IgG4 S228P, lambda, F234A L235A)
heavy 1: EVQLVESGGGLVQPGGSLRLSCAASGFTFNTYAMNWVRQAPGKGLEWVARIRSKYNNYATYYAASVKGRFTISRDDSKNSLYLQMNSLKTEDTAVYYCARHGNFGNSYVSWFAYWGQGTLVTVSSASTKGPSVFPLAPCSRSTSESTAALGCLVKDYFPEPVTVSWNSGALTSGVHTFPAVLQSSGLYSLSSVVTVPSSSLGTKTYTCNVDHKPSNTKVDKRVESKYGPPCPPCPAPEAAGGPSVFLFPPKPKDTLMISRTPEVTCVVVDVSQEDPEVQFNWYVDGVEVHNAKTKPREEQFNSTYRVVSVLTVLHQDWLNGKEYKCKVSNKGLPSSIEKTISKAKGQPREPQVYTLPPSQEEMTKNQVSLTCLVKGFYPSDIAVEWESNGQPENNYKTTPPVLDSDGSFLLYSKLTVDKSRWQEGNVFSCSVMHEALHNHYTQKSLSLSLGK
light 1: QTVVTQEPSLTVSPGGTVTLTCRSSTGAVTTSNYANWVQQKPGQAPRGLIGGTNKRAPGTPARFSGSLLGGKAALTLSGVQPEDEAEYYCALWYSNLWVFGGGTKLTVLGQPKAAPSVTLFPPSSEELQANKATLVCLISDFYPGAVTVAWKADSSPVKAGVETTTPSKQSNNKYAASSYLSLTPEQWKSHRSYSCQVTHEGSTVEKTVAPTECS
heavy 2: not shown
light 2: SYVLTQPPSVSVAPGQTARITCGGNNIGSKSVHWYQQPPGQAPVVVVYDDSDRPSGIPERFSGSNSGNTATLTISRVEAGDEAVYYCQVWDSSSDHVVFGGGTKLTVLGQPKAAPSVTLFPPSSEELQANKATLVCLISDFYPGAVTVAWKADSSPVKAGVETTTPSKQSNNKYAASSYLSLTPEQWKSHRSYSCQVTHEGSTVEKTVAPTECS
notes: IgG4 made by Fab arm exchange; also called B176 × B219
On to B2, for which the figures for the koff in [7] and in [1] were 0.00132 s⁻¹ and 0.00683 s⁻¹, respectively. Further, the KD1 stood at 0.58 nM in experiment [8] and 3.56 nM in experiment [2]. For the same molecule, the Kd worked out at 0.12 nM in experiment [9] and 0.75 nM in experiment [3]. Moreover, the koff2 stood at 0.000689 s⁻¹ in experiment [10] and 0.000395 s⁻¹ in experiment [5]. Besides, the kon2 in experiment [10] is 0.00252 s⁻¹; in [5], 0.00147 s⁻¹. In experiment [11], the “fold weaker affinity than BCMB72” value was 2 to 3 fold. Further, the kon in [12] is 2.26e+06 M⁻¹ s⁻¹; in experiment [6], 1.93e+06 M⁻¹ s⁻¹.

B3: BC3B9 (BCMA×CD3 bispecific antibody, BCMB128 × CD3B219) (bispecific antibody, human IgG4 S228P, lambda, F234A L235A)
heavy 1: EVQLVESGGGLVQPGGSLRLSCAASGFTFNTYAMNWVRQAPGKGLEWVARIRSKYNNYATYYAASVKGRFTISRDDSKNSLYLQMNSLKTEDTAVYYCARHGNFGNSYVSWFAYWGQGTLVTVSSASTKGPSVFPLAPCSRSTSESTAALGCLVKDYFPEPVTVSWNSGALTSGVHTFPAVLQSSGLYSLSSVVTVPSSSLGTKTYTCNVDHKPSNTKVDKRVESKYGPPCPPCPAPEAAGGPSVFLFPPKPKDTLMISRTPEVTCVVVDVSQEDPEVQFNWYVDGVEVHNAKTKPREEQFNSTYRVVSVLTVLHQDWLNGKEYKCKVSNKGLPSSIEKTISKAKGQPREPQVYTLPPSQEEMTKNQVSLTCLVKGFYPSDIAVEWESNGQPENNYKTTPPVLDSDGSFLLYSKLTVDKSRWQEGNVFSCSVMHEALHNHYTQKSLSLSLGK
light 1: QTVVTQEPSLTVSPGGTVTLTCRSSTGAVTTSNYANWVQQKPGQAPRGLIGGTNKRAPGTPARFSGSLLGGKAALTLSGVQPEDEAEYYCALWYSNLWVFGGGTKLTVLGQPKAAPSVTLFPPSSEELQANKATLVCLISDFYPGAVTVAWKADSSPVKAGVETTTPSKQSNNKYAASSYLSLTPEQWKSHRSYSCQVTHEGSTVEKTVAPTECS
heavy 2: not shown
light 2: SYVLTQPPSVSVAPGQTARITCGGNNIGSKSVHWYQQPPGQAPVVVVYDDSDRPSGIPERFSGSNSGNTATLTISRVEAGDEAVYYCQVWDSSSDHVVFGGGTKLTVLGQPKAAPSVTLFPPSSEELQANKATLVCLISDFYPGAVTVAWKADSSPVKAGVETTTPSKQSNNKYAASSYLSLTPEQWKSHRSYSCQVTHEGSTVEKTVAPTECS
notes: IgG4 made by Fab arm exchange; also called B128 × B219
As for B3, the koff in experiment [7] came out at 0.00205 s⁻¹; in experiment [1], 0.00423 s⁻¹. Besides, the KD1 in [8] worked out at 0.79 nM; in [2] it was 1.94 nM. Moreover, the Kd in experiment [9] is 0.05 nM; in [3], 0.37 nM. The “fold tighter affinity than BCMB72” value in experiment [4] is 3 fold. In addition, the results for the koff2 in experiment [10] and in experiment [5] were 0.000364 s⁻¹ and 0.000376 s⁻¹, respectively. Besides, the results for the kon2 in [10] and in [5] were 0.00506 s⁻¹ and 0.0016 s⁻¹, respectively. Moreover, the kon in [12] came to 2.58e+06 M⁻¹ s⁻¹; in experiment [6], 2.18e+06 M⁻¹ s⁻¹.

B4: BC3B12 (BCMA×CD3 bispecific antibody, BCMB177 × CD3B219) (bispecific antibody, human IgG4 S228P, lambda, F234A L235A)
heavy 1: EVQLVESGGGLVQPGGSLRLSCAASGFTFNTYAMNWVRQAPGKGLEWVARIRSKYNNYATYYAASVKGRFTISRDDSKNSLYLQMNSLKTEDTAVYYCARHGNFGNSYVSWFAYWGQGTLVTVSSASTKGPSVFPLAPCSRSTSESTAALGCLVKDYFPEPVTVSWNSGALTSGVHTFPAVLQSSGLYSLSSVVTVPSSSLGTKTYTCNVDHKPSNTKVDKRVESKYGPPCPPCPAPEAAGGPSVFLFPPKPKDTLMISRTPEVTCVVVDVSQEDPEVQFNWYVDGVEVHNAKTKPREEQFNSTYRVVSVLTVLHQDWLNGKEYKCKVSNKGLPSSIEKTISKAKGQPREPQVYTLPPSQEEMTKNQVSLTCLVKGFYPSDIAVEWESNGQPENNYKTTPPVLDSDGSFLLYSKLTVDKSRWQEGNVFSCSVMHEALHNHYTQKSLSLSLGK
light 1: QTVVTQEPSLTVSPGGTVTLTCRSSTGAVTTSNYANWVQQKPGQAPRGLIGGTNKRAPGTPARFSGSLLGGKAALTLSGVQPEDEAEYYCALWYSNLWVFGGGTKLTVLGQPKAAPSVTLFPPSSEELQANKATLVCLISDFYPGAVTVAWKADSSPVKAGVETTTPSKQSNNKYAASSYLSLTPEQWKSHRSYSCQVTHEGSTVEKTVAPTECS
heavy 2: not shown
light 2: SYVLTQPPSVSVAPGQTARITCGGNNIGSKSVHWYQQPPGQAPVVVVYDDSDRPSGIPERFSGSNSGNTATLTISRVEAGDEAVYYCQVWDSSSDHVVFGGGTKLTVLGQPKAAPSVTLFPPSSEELQANKATLVCLISDFYPGAVTVAWKADSSPVKAGVETTTPSKQSNNKYAASSYLSLTPEQWKSHRSYSCQVTHEGSTVEKTVAPTECS
notes: IgG4 made by Fab arm exchange; also called B177 × B219
For the molecule B4, the koff in experiment [7] was 0.00129 s⁻¹; in experiment [1], 0.00831 s⁻¹. Moreover, the KD1 in [8] was found to be 0.72 nM; in experiment [2] it was 5.65 nM. Besides, the Kd in [9] is 0.22 nM; in experiment [3] it was 1.06 nM. Also, the koff2 in [10] was 0.000557 s⁻¹; in [5], 0.000337 s⁻¹. In addition, the kon2 in experiment [10] came out at 0.00129 s⁻¹; in experiment [5], 0.00146 s⁻¹. Moreover, the “fold weaker affinity than BCMB72” value in experiment [11] lay within 2 to 3 fold. Besides, the results for the kon in experiment [12] and in experiment [6] were 1.78e+06 M⁻¹ s⁻¹ and 1.48e+06 M⁻¹ s⁻¹, respectively.
